Source: PMC4119789

Biological target: H3K4AK9me2 peptide
Assay: ITC

fold weaker affinity than for the H3K9me2 peptide: 30 fold
B1: SAWADEE domain of atSHH1 (residues 125-258) (domain or fragment)
chain: ADLAFEAKSARDYAWYDVSSFLTYRVLRTGELEVRVRFSGFDNRHDEWVNVKTSVRERSIPVEPSECGRVNVGDLLLCFQEREDQALYCDGHVLNIKRGIHDHARCNCVFLVRYELDNTEESLGLERICRRPEE
